Data taken from patent US20130101549A1 (Biogen, published 2013).

B1: BIIB65C10 Fab (Fab, V domains shown)
VH: EVQLLESGGGLVQPGGSLRLSCAASGFTFSYYPMMWVRQAPGKGLEWVSSIWPSGGFTKYADSVKGRFTISRDNSKNTLYLQMNSLRAEDTATYYCARVSSSSWYGYLYWGQGTLVTVSS
VL: not shown
notes: Soluble human Fab from a naive phagemid Fab library
B2: BIIB65H09 Fab (Fab, V domains shown)
VH: EVQLLESGGGLVQPGGSLRLSCAASGFTFSWYSMWWVRQAPGKGLEWVSSIVSSGGQTRYADSVKGRFTISRDNSKNTLYLQMNSLRAEDTAVYYCARVKGYYYYIDVWGKGTTVTVSS
VL: DIQMTQSPGTLSLSPGERATLSCRASQSVDSSYLSWYQQKPGQAPRLLIYGASTRATGIPARFSGSGSGTDFTLTVSRLEPEDFAVYYCQQHGYSSRTFGQGTKVEIK
notes: as for B1
B3: BIIB65B03 Fab (Fab, V domains shown)
VH: EVQLLESGGGLVQPGGSLRLSCAASGFTFSWYRMNWVRQAPGKGLEWVSSIYSSGGPTNYADSVKGRFTISRDNSQNTLYLQMNSLRAEDTAVYYCTREKPDYYDSSGYLDYWGQGTLVTVSS
VL: DIQMTQSPGTLSLSPGERSTLSCRASQSVSSSYLAWYQQKPGQAPRLLIYGASSRATGIPDRFSGSGSGTDFTLTISRLEPEDFGVYYCHQYGRPPVFGPGTKVDIK
notes: as for B1
B4: BIIB67F11 Fab (Fab, V domains shown)
VH: EVQLLESGGGLVQPGGSLRLSCAASGFTFSNYYMMWVRQAPGKGLEWVSVIGSSGGMTNYADSVKGRFTISRDNSKNTLYLQMNSLRAEDTAVYYCARGYPTGYYDSSGWVYSYYGIDVWGQGTTVTVSS
VL: DIQMTQSPSSLSASIGDRVTITCQASQDTDNRLHWYQQKSGRAPKLLIYDAVNLKRGVPSRFRGSGSGTNFILTITNLQPEDMATYFCQHSDGLSLAFGGGTKLEIK
notes: as for B1
B5: BIIB66A12 Fab (Fab, V domains shown)
VH: EVQLLESGGGLVQPGGSLRLSCAASGFTFSMYSMQWVRQAPGKGLEWVSVIGSSGGQTGYADSVKGRFTISRDNSKNTLYLQMNSLRAEDTAVYYCARVRDYYGSGSYYLDPWGQGTLVTVSS
VL: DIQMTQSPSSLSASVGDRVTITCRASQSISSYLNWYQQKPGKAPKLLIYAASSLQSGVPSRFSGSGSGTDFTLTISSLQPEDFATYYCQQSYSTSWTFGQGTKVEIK
notes: as for B1
B6: BIIB69A09 Fab (Fab, V domains shown)
VH: EVQLLESGGGLVQPGGSLRLSCAASGFTFSRYNMWWVRQAPGKGLEWVSVIRSSGGYTGYADSVKGRFTISRDNSKNTLYLQMNSLRAEDTAVYYCARWNSGYSYWDYYYGMDVWGQGTTVTVSS
VL: DIQMTQSPSSLSASVGDRVTITCRASQSISSYLNWYQQKPGKAPKLLIYAASSLQSGVPSRFSGSGSGTDFTLTISSLQPEDFATYYCQQFNTYPITFGPGTKVDIK
notes: as for B1
B7: BIIB66C01 Fab (Fab, V domains shown)
VH: EVQLLESGGGLVQPGGSLRLSCAASGFTFSWYSMSWVRQAPGKGLEWVSSISSSGGPTHYADSVKGRFTISRDNSKNTLYLQMNSLRAEDTAVYYCARDSSYSGTSWGQGTLVTVSS
VL: QYELTQPPSVSGTPGQRVTISCSGSSSNIGSEYVYWFQQLPGTAPRLLIYRNDQRPSGVPDRFSGSKSGTSASLAISGLRSEDETDYYCTTWDDSLSGPVFGGGTKLTVL
notes: as for B1
B8: BIIB67F10 Fab (Fab, V domains shown)
VH: EVQLLESGGGLVQPGGSLRLSCAASGFTFSPYMMVWVRQAPGKGLEWVSWISPSGGYTFYADSVKGRFTISRDNSKNTLYLQMNSLRAEDTAVYYCAYGTYPLTYWGQGTLVTVSS
VL: QSELTQTPSVSVSPGQTASITCSGDKLGDKYVSWFQLKPGQSPLLVIYQDSKWPSGIPERFSGSNSGNTATLTISGTQATDEADYYCQVWDISHVVFGGGTKLTVL
notes: as for B1

How the values were obtained:
EGFR on MDA-MB-468 cells = target: T1, EGFR on MDA-MB-468 cells (UniProt P00533 25-1210, limits assumed); experiment: FACS on MDA-MB-468 cells (EGFR+, HER2-)
T1 construct: whole, on cells; also called MDA-MB-468 tumor cell line (EGFR+, HER2-)

Her2-Fc D1 (MR066) = target: T2, Her2-Fc D1 (MR066); experiment: ELISA, HER2-Fc construct captured by anti-huFc, Fab from 1 ug/ml in 5-fold steps, HRP anti-kappa/lambda
T2 construct: also called ErbB2-Fc Domain 1
T2 chain: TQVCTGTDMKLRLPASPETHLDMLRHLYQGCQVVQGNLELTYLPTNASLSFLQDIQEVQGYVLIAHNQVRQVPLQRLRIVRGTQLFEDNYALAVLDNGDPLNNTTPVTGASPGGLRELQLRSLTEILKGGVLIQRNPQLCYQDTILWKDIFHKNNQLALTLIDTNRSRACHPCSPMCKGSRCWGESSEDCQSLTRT
Procedure: (§1) Nunc Maxisorp ELISA plates were coated with 5 ug/ml rabbit pAbs anti-human Fc gamma in PBS overnight at 4 degrees. Plates were washed one time with PBST (PBS, 0.05% tween 20) and blocked with 1% BSA in PBS for one hour at room temperature. Plates were washed one time with PBST and incubated with 1 ug/ml HER2-Fc fusion protein for one hour. Plates were washed three times with PBST and dilutions of Fab (four 5-fold serial dilutions, starting at 1 ug/ml) in block were added and incubated for ninety minutes. Plates were washed three times with PBST and incubated with 1:2,000 HRP-labelled goat anti-human kappa (Southern Biotech cat#2060-05) and HRP-labelled goat anti-human lambda (Southern Biotech cat#2070-05) in block for one hour at room temperature. Plates were washed three times with PBST, developed with TMB solution for 5 minutes, and stopped with equal volume 1 N H₂SO₄. Absorbance values were read at 450 nm.

Her2-Fc D1-D2-D3 (MR068) = target: T3, Her2-Fc D1-D2-D3 (MR068); experiment: as above
T3 construct: also called ErbB2-Fc Domains 1-3
Procedure: as §1

[1] = target: T4, Her2-Fc D1-D2-D3-D4 (MR069); experiment: as above
T4 construct: made in house, kept apart from the R&D Systems HER2-Fc; also called ErbB2-Fc full length ECD
Procedure: as §1

Her2-Fc D1-D2 (MR067) = target: T5, Her2-Fc D1-D2 (MR067); experiment: as above
T5 construct: also called ErbB2-Fc Domains 1-2
T5 chain: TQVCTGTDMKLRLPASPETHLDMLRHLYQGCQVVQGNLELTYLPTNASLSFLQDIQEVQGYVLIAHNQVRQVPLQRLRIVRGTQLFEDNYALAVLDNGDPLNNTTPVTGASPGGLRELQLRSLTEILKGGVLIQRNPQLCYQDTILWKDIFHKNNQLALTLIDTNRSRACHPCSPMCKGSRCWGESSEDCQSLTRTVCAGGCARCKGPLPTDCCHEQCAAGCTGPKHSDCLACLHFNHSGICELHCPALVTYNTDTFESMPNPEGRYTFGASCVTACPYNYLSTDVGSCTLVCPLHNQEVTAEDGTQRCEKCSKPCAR
Procedure: as §1

[2] = target: T6, human HER2/ErbB2 on cells (human, UniProt P04626 23-1255); experiment: flow cytometry on CHO cells expressing human HER2
T6 construct: whole, on cells; also called hHER2/ErbB2; wild type HER2/ErbB
Procedure: CHO cells (Chinese Hamster Ovary cells) stably transfected with hHER2 expression vector and selected in G418 containing medium. G418 resistant clones were pooled and split 24 hours prior to the setup of the assay to obtain 70% confluent monolayer. Routinely, CHO cell line was maintained within 20 passages. Cells were lifted with cell dissociation buffer (Gibco catalog #13151-014), counted, washed and adjusted to 1×10⁶ cells/ml and one ml of cells were then added to each tube (12×75 mm tube Falcon catalog #352054). Cells were pelleted and supernatant removed by centrifugation at 1200 rpm for 5 min and 100 μl of diluted antibodies were then added to the cell pellet. Purified Fabs were tested at a starting concentration of either 210 or 60 μg/ml with 1:3 dilutions in FACS buffer, down to 0.001 μg/ml. FACS buffer used throughout the assay was PBS (without Ca^{+±}/Mg^{+±}) containing 1% BSA (Sigma catalog #A-7906) and 0.1% Sodium Azide (Sigma catalog #S2002). Samples were allowed to incubate on ice for 1 hour and 15 minutes then were washed with 2 ml FACS buffer and centrifuged at 1200 rpm for 5 minutes at 4° C. The supernatant was aspirated and 100 μl of the secondary detection antibody was added to each corresponding tube in FACS buffer. Samples were then incubated for 30 minutes on ice, in the dark. Cells were washed as described above, then, re-suspended in 250 μl FACS buffer per tube/sample.
A full titration was performed on MCF7 and SKBR3 tumor cell lines, and human Her2-CHO and murine Her2-CHO cell lines in order to calculate an approximate EC50 (data not shown, see summary in Table 1).

murine HER2 on CHO cells = target: T7, murine HER2 on CHO cells (mouse, UniProt P70424 23-1256); experiment: FACS on CHO cells expressing murine HER2
T7 construct: whole, on cells; also called mHER2/ErbB2; murine Her2-CHO

| Binder | binding result (EGFR on MDA-MB-468 cells) | binding result (Her2-Fc D1 (MR066)) | binding result (Her2-Fc D1-D2-D3 (MR068)) | binding result [1] | binding result (Her2-Fc D1-D2 (MR067)) | EC50 [2] [nM] | binding result (murine HER2 on CHO cells) |
| --- | --- | --- | --- | --- | --- | --- | --- |
| B1 | no binding | no binding (tested: 1 ug/ml) | binds | binds | binds | 6 | no binding |
| B2 | no binding | no binding (tested: 1 ug/ml) | binds | binds | no binding (tested: 1 ug/ml) | 20 | no binding |
| B3 | no binding | no binding (tested: 1 ug/ml) | binds | binds | no binding (tested: 1 ug/ml) | 15 | no binding |
| B4 | no binding | binds | binds | binds | binds | 7 | no binding |
| B5 | no binding | no binding (tested: 1 ug/ml) | binds | binds | no binding (tested: 1 ug/ml) | 60 | no binding |
| B6 | no binding | binds | binds | binds | binds | 2 | no binding |
| B7 | no binding | no binding (tested: 1 ug/ml) | binds | binds | no binding (tested: 1 ug/ml) | 12 | no binding |
| B8 | no binding | binds | binds | binds | binds | 2 | no binding |
